Assay results: patent US10919943B2, “Mutant proteins enabling agrochemical control of plant gene expression” (The Regents of the University of California, priority 2016, dated 2021)
Positions count from the first letter of the chain named. In names and notes the source's numbering stands.

T1: PYR1 (Arabidopsis thaliana, UniProt O49686)
T1 construct: expressed in transfected cells; host or cells: S. cerevisiae strain Y190
T1 sequence (O49686 1-191): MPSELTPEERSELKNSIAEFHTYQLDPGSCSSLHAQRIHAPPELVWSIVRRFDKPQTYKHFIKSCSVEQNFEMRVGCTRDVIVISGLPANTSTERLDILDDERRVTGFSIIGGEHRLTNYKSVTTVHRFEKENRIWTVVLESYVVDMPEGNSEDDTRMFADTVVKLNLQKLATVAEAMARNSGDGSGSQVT

B1: E203T: HAB1 mutant (protein, listed as Arabidopsis thaliana)
chain: MEEMTPAVAMTLSLAANTMCESSPVEITQLKNVTDAADLLSDSENQSFCNGGTECTMEDVSELEEVGEQDLLKTLSDTRSGSSNVFDEDDVLSVVEDNSAVISEGLLVVDAGSELSLSNTAMEIDNGRVLATAIIVGESSIEQVPTAEVLIAGVNQDTNTSEVVIRLPDENSNHLVKGRSVYELDCIPLWGTVSIQGNRSEMTDAFAVSPHFLKLPIKMLMGDHEGMSPSLTHLTGHFFGVYDGHGGHKVADYCRDRLHFALAEEIERIKDELCKRNTGEGRQVQWDKVFTSCFLTVDGEIEGKIGRAVVGSSDKVLEAVASETVGSTAVVALVCSSHIVVSNCGDSRAVLFRGKEAMPLSVDHKPDREDEYARIENAGGKVIQWQGARVFGVLAMSRSIGDRYLKPYVIPEPEVTFMPRSREDECLILASDGLWDVMNNQEVCEIARRRILMWHKKNGAPPLAERGKGIDPACQAAADYLSMLALQKGSKDNISIIVIDLKAQRKFKTRT
B2: E203W: HAB1 mutant (protein, listed as Arabidopsis thaliana)
chain: B1 chain with T203W
B3: Y404Q: HAB1 mutant (protein, UniProt Q9CAJ0 23-511, looked up, variant Y404Q)
Protein phosphatase 2C 16: SPVEITQLKNVTDAADLLSDSENQSFCNGGTECTMEDVSELEEVGEQDLLKTLSDTRSGSSNVFDEDDVLSVVEDNSAVISEGLLVVDAGSELSLSNTAMEIDNGRVLATAIIVGESSIEQVPTAEVLIAGVNQDTNTSEVVIRLPDENSNHLVKGRSVYELDCIPLWGTVSIQGNRSEMEDAFAVSPHFLKLPIKMLMGDHEGMSPSLTHLTGHFFGVYDGHGGHKVADYCRDRLHFALAEEIERIKDELCKRNTGEGRQVQWDKVFTSCFLTVDGEIEGKIGRAVVGSSDKVLEAVASETVGSTAVVALVCSSHIVVSNCGDSRAVLFRGKEAMPLSVDHKPDREDEYARIENAGGKVIQWQGARVFGVLAMSRSIGDRQLKPYVIPEPEVTFMPRSREDECLILASDGLWDVMNNQEVCEIARRRILMWHKKNGAPPLAERGKGIDPACQAAADYLSMLALQKGSKDNISIIVIDLKAQRKFKTRT
B4: Y404R: HAB1 mutant (protein, UniProt Q9CAJ0 23-511, looked up, variant Y404R)
Protein phosphatase 2C 16: B3 Protein phosphatase 2C 16 with Q382R
B5: Y404K: HAB1 mutant (protein, UniProt Q9CAJ0 23-511, looked up, variant Y404K)
Protein phosphatase 2C 16: B3 Protein phosphatase 2C 16 with Q382K
B6: Y404G: HAB1 mutant (protein, UniProt Q9CAJ0 23-511, looked up, variant Y404G)
Protein phosphatase 2C 16: B3 Protein phosphatase 2C 16 with Q382G
B7: Y404E: HAB1 mutant (protein, UniProt Q9CAJ0 23-511, looked up, variant Y404E)
Protein phosphatase 2C 16: B3 Protein phosphatase 2C 16 with Q382E
B8: E201K: HAB1 mutant (protein, UniProt Q9CAJ0 23-511, looked up, variant E201K)
Protein phosphatase 2C 16: B3 Protein phosphatase 2C 16 with E179K, Q382Y
B9: Y404D: HAB1 mutant (protein, UniProt Q9CAJ0 23-511, looked up, variant Y404D)
Protein phosphatase 2C 16: B3 Protein phosphatase 2C 16 with Q382D
B10: Y404S: HAB1 mutant (protein, UniProt Q9CAJ0 23-511, looked up, variant Y404S)
Protein phosphatase 2C 16: B3 Protein phosphatase 2C 16 with Q382S
B11: Y404T: HAB1 mutant (protein, UniProt Q9CAJ0 23-511, looked up, variant Y404T)
Protein phosphatase 2C 16: B3 Protein phosphatase 2C 16 with Q382T
B12: E201H: HAB1 mutant (protein, UniProt Q9CAJ0 23-511, looked up, variant E201H)
Protein phosphatase 2C 16: B3 Protein phosphatase 2C 16 with E179H, Q382Y

Biological target: T1, PYR1
Assay: Yeast two hybrid of pACT-HAB1 site saturation mutants with pBD-PYR1 on 10 μM ABA, β-galactosidase staining
Format: cell-based
Parameters: key: x: Mutations in HAB1 that disrupt HAB1 interaction with PYR1
Settings: S. cerevisiae Y190, 10 μM ABA; dead = lack of detectable staining in comparison to wild type control
Method in brief: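 HAB1 (lacking three N-terminal residues) site-saturation mutants in pACT were co-transformed with pBD-PYR1 into S. cerevisiae Y190 and spotted on SD (-Leu,-Trp) with 10 μM ABA. After 2 days at 30 °C, chloroform-lysed colonies were stained for β-galactosidase; "dead" means no detectable staining versus wild-type pair.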

Molecule | Mutations in HAB1 that disrupt HAB1 interaction with PYR1
B1 | x
B2 | x
B3 | x
B4 | x
B5 | x
B6 | x
B7 | x
B8 | x
B9 | x
B10 | x
B11 | x
B12 | x
